Literature values as cited in article PMC3509699.
Like-named read-outs stand apart in the source and are kept apart here.

Assays:
KV1.3 (Homo sapiens) [1] = molecular target: KV1.3 (Homo sapiens) (UniProt P22001)
KCa3.1 (Homo sapiens) [2] = molecular target: KCa3.1 (Homo sapiens) (UniProt O15554)
KV1.3 (Homo sapiens) [3] = molecular target: KV1.3 (Homo sapiens) (UniProt P22001); remark: listed apart in the source
KCa3.1 (Homo sapiens) [4] = molecular target: KCa3.1 (Homo sapiens) (UniProt O15554); remark: listed apart in the source

Sequence of UniProt O15554 (O15554 whole entry): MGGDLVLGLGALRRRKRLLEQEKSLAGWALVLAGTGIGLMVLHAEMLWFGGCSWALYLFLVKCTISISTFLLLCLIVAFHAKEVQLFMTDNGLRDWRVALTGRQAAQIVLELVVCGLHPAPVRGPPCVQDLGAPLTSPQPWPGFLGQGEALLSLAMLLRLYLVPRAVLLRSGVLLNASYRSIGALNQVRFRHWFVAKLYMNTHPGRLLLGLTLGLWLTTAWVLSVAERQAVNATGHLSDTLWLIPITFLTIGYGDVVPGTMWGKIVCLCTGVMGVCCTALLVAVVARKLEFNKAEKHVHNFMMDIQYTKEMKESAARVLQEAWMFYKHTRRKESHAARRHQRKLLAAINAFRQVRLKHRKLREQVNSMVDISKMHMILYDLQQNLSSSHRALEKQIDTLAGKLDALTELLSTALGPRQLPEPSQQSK
Sequence of UniProt P22001 (P22001 whole entry): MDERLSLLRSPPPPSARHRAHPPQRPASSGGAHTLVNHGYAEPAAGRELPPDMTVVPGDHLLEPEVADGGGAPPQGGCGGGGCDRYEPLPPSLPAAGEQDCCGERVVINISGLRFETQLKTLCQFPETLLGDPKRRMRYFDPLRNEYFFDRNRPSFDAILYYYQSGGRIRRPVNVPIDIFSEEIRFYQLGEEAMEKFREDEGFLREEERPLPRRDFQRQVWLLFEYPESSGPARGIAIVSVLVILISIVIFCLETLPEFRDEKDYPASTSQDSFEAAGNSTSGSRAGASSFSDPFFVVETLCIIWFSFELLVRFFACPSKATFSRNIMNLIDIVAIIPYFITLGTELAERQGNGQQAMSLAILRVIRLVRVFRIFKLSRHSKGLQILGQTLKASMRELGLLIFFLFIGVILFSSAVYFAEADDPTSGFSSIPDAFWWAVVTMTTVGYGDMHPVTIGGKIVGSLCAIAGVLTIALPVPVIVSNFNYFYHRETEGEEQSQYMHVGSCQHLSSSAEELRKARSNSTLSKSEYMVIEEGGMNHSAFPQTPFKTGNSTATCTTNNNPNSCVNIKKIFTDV

## BmKTX (from UniProt Q9NII7)
KV1.3 (Homo sapiens) [1]
  Kd: 200 pM

## Charybdotoxin (ChTx) (from UniProt P13487)
KCa3.1 (Homo sapiens) [2]
  Kd: 5000 pM

## Margatoxin (from UniProt P40755)
KV1.3 (Homo sapiens) [3]
  Kd: 110 pM

## Maurotoxin (MTX) (from UniProt P80719)
KCa3.1 (Homo sapiens) [4]
  Kd: 1000 pM
